# B1: Anti-EM-8F9mut1单克隆抗体 (antibody, mouse IgG2a, kappa, V domains shown)
# VH: QVPLQQPGAALVKPGASVKLSCQASDYTFTNYNMHWVKQTPGQGLEWIGTIYAGDGDPSYNQKFKGQATLTADKSSSTAYMQLLSLTSEDSAVYYCARGGTRAMDYWGHGTSVTVSS
# VL: DVLLTQIPLSLPVSLGDQASLSCRSSQTLVHSDGNTYLAWYLQKPGQSPKLLIYKVSRRFSGVPDRFSGSGSGTDFTLKISRVEAEDLGVYYCFQGSHVPFTFGSGTKLEVKR
# What was measured:
# [1] = molecular target: 红细胞胞膜抗原 (Erythrocyte membrane antigen) on human fresh red blood cells (human); experiment: ELISA on formaldehyde-fixed human red blood cells; antibody at 25 ng/ml
# [2] = molecular target: 红细胞胞膜抗原 (Erythrocyte membrane antigen) on human fresh red blood cells (human); experiment: ELISA on formaldehyde-fixed human red blood cells; antibody at 50 ng/ml
# [3] = molecular target: 红细胞胞膜抗原 (Erythrocyte membrane antigen) on human fresh red blood cells (human); experiment: ELISA on formaldehyde-fixed human red blood cells; antibody at 12.5 ng/ml
# [4] = molecular target: 红细胞胞膜抗原 (Erythrocyte membrane antigen) on human fresh red blood cells (human); experiment: ELISA on formaldehyde-fixed human red blood cells; antibody at 6.25 ng/ml
# [5] = molecular target: 红细胞胞膜抗原 (Erythrocyte membrane antigen) on human fresh red blood cells (human); experiment: ELISA on formaldehyde-fixed human red blood cells; antibody at 3.125 ng/ml
# [6] = molecular target: 红细胞胞膜抗原 (Erythrocyte membrane antigen) on human fresh red blood cells (human); experiment: ELISA on formaldehyde-fixed human red blood cells; antibody at 0 ng/ml (blank)
# [7] = molecular target: 红细胞胞膜抗原 (Erythrocyte membrane antigen) on human fresh red blood cells (human); experiment: ELISA on red blood cells; Anti-EM-8F9mut1 stored 21 days at 4 C; antibody at 12.5 ng/ml
# [8] = molecular target: 红细胞胞膜抗原 (Erythrocyte membrane antigen) on human fresh red blood cells (human); experiment: ELISA on red blood cells; Anti-EM-8F9mut1 stored 21 days at 37 C; antibody at 12.5 ng/ml
# [9] = molecular target: 红细胞胞膜抗原 (Erythrocyte membrane antigen) on human fresh red blood cells (human); experiment: ELISA on red blood cells; Anti-EM-8F9mut1 stored 21 days at -80 C; antibody at 12.5 ng/ml
# [10] = molecular target: 红细胞胞膜抗原 (Erythrocyte membrane antigen) on human fresh red blood cells (human); experiment: ELISA on red blood cells; Anti-EM-8F9mut1 stored 21 days at 4 C; antibody at 1.5625 ng/ml
# [11] = molecular target: 红细胞胞膜抗原 (Erythrocyte membrane antigen) on human fresh red blood cells (human); experiment: ELISA on red blood cells; Anti-EM-8F9mut1 stored 21 days at 37 C; antibody at 1.5625 ng/ml
# [12] = molecular target: 红细胞胞膜抗原 (Erythrocyte membrane antigen) on human fresh red blood cells (human); experiment: ELISA on red blood cells; Anti-EM-8F9mut1 stored 21 days at -80 C; antibody at 1.5625 ng/ml
# [13] = molecular target: 红细胞胞膜抗原 (Erythrocyte membrane antigen) on human fresh red blood cells (human); experiment: ELISA on red blood cells; Anti-EM-8F9mut1 stored 21 days at 4 C; antibody at 0 ng/ml (blank)
# [14] = molecular target: 红细胞胞膜抗原 (Erythrocyte membrane antigen) on human fresh red blood cells (human); experiment: ELISA on red blood cells; Anti-EM-8F9mut1 stored 21 days at 37 C; antibody at 0 ng/ml (blank)
# [15] = molecular target: 红细胞胞膜抗原 (Erythrocyte membrane antigen) on human fresh red blood cells (human); experiment: ELISA on red blood cells; Anti-EM-8F9mut1 stored 21 days at -80 C; antibody at 0 ng/ml (blank)
Molecule,OD450 (ref 630 nm) [1],OD450 (ref 630 nm) [2],OD450 (ref 630 nm) [3],OD450 (ref 630 nm) [4],OD450 (ref 630 nm) [5],OD450 (ref 630 nm) [6],OD450 (ref 630 nm) [7],OD450 (ref 630 nm) [8],OD450 (ref 630 nm) [9],OD450 (ref 630 nm) [10],OD450 (ref 630 nm) [11],OD450 (ref 630 nm) [12],OD450 (ref 630 nm) [13],OD450 (ref 630 nm) [14],OD450 (ref 630 nm) [15]
对照抗体 (antibody),1.3 OD,1.89 OD,0.696 OD,0.408 OD,0.196 OD,0.041 OD,–,–,–,–,–,–,–,–,–
B1,2.42 OD,2.36 OD,2.33 OD,2 OD,1.28 OD,0.063 OD,2.12 OD,2.13 OD,2.15 OD,0.691 OD,0.666 OD,0.647 OD,0.047 OD,0.057 OD,0.051 OD
